± gives the standard deviation of the averaged measurements.
Columns and labels:
[1] = melting temperature (DSF); higher = more thermostable
Protocol: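 Candidate PET hydrolases were expressed in E. coli C41(DE3) in 2 mL autoinduction cultures in 24-deep-well plates, Ni-bead purified and released by SUMO protease cleavage on an OT-2 robot. Yield per well was measured by BCA; values below 25 ug (0.1 mg/mL) are below the detection threshold. Melting temperature was measured by differential scanning fluorimetry with Sypro Orange, ramping from 25 C at 0.3 C/step.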

[2] = purified protein yield per well (BCA); higher = higher soluble expression
Outline: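 Candidate enzymes were expressed in E. coli C41(DE3) in 2 mL autoinduction cultures with 100 µg/mL kanamycin, at 37 °C for 2 h and then 18 °C for 40 h. Cells were lysed, and protein was bound to Ni-charged magnetic beads and released by SUMO protease cleavage on an OT-2 robot. The read-out is purified protein yield per well, measured with the Pierce Rapid Gold BCA kit. Values below 25 ug (0.1 mg/mL) are below the detection threshold.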

[3] = PET hydrolysis, aromatic products released after 48 h (umol product/mg enzyme); higher = more PET depolymerization activity
Protocol: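 HTP-purified, SUMO-cleaved, tagless PET hydrolase candidates (5 ug, 1.43 mg/g PET) were incubated 48 h without shaking with 3.5 mg amorphous PET film (aFilm) or crystalline PET powder (cryPow) in 0.5 mL buffer: NaCitrate pH 4.5/5.5, NaPhosphate pH 6.5/7.5, glycine pH 8.5. Incubation was at 40 or 60 C. Aromatic products (TPA, MHET, BHET) in the supernatant were quantified by UV absorbance at 260/280 nm relative to buffer blanks and expressed per mg enzyme. LCC-ICCG was the positive control on every plate.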

[4] = substrate: cryPow, 40 °C, pH 5.5
[5] = substrate: cryPow, 40 °C, pH 6.5
[6] = substrate: cryPow, 40 °C, pH 7.5
[7] = substrate: cryPow, 40 °C, pH 8.5
[8] = substrate: cryPow, 60 °C, pH 5.5
[9] = substrate: cryPow, 60 °C, pH 6.5
[10] = substrate: cryPow, 60 °C, pH 7.5
[11] = substrate: cryPow, 40 °C, pH 4.5
[12] = substrate: cryPow, 60 °C, pH 4.5

Row | Sequence | melting temperature [1] [C] | purified protein yield per well [2] [µg] | PET hydrolysis [3, 4] | PET hydrolysis [3, 5] | PET hydrolysis [3, 6] | PET hydrolysis [3, 8] | PET hydrolysis [3, 9] | PET hydrolysis [3, 10] | PET hydrolysis [3, 11] | PET hydrolysis [3, 12] | further results
1 | ADNPYQRGPAPTAASISADTGPFATATTVAEGTGFGGATIYYPTDTSQGTFGAIGMLPGWTAPWSAYAWLGPRLASQGFVVIGVDTNDPNDYPAARATQVLAALDHLTESSAVRDRVDPDRLAVAGHSMGGGGSLEAALSRPSLKAVYGIEPYDDITSDFSNLTVPTFIQAGQDDTLVTPSYLESLYATLPSTSEHAYLEIAGADHMFVGSPNVILARTLISWMKIFVDDDTRYTQFLCPLSDDSGVSQYRNTCPLTPGGSTGSPTATAPSPPASSSNPPGTPSSPAPTDGTCRVTYTTNAWDSGLTASVTIANTGTTASTGWSLAFTLPDGQTITSGWNATYSPSSGQVTATGVSHNATIPAGESINIGFQATHTGDTGAPTTFALNGQTCTIT [DP021] | 47.5 | 170 | 5 | < 3 | < 3 | < 3 | < 3 | < 3 |  |  | PET hydrolysis [3, 7]: < 3; PET hydrolysis ([3]; substrate: cryPow, 60 °C, pH 8.5): < 3
2 | QPTLESLGNPGPYQVAYYDQLPEVDEYGAATLYFPANRGTDFGGVAIAPGFIEQQENIEWWGRHLASYGFAVLVLDTNNPRDDPQVRSEALLAALDVIRGEGARSGSPIRGKILNDRMAVMGHSMGGGGTLLAANRASDQLKAIIPFTPWLPNADFSSVAVPTLVLAGEVDRIASVAEHAWPHFQTLPEGIPRMYVEIAGGNHFIANSTTDQERLNPNIDVHDLVGALGVAWLKYFVDGDEDYRDLIYGELPAEQRARLSRFEFVQ [TEP107] | 44.5 | 57.2 | < 3 | < 3 | < 3 | < 3 | < 3 | < 3 | < 3 | < 3 | 
3 | ADNPYQRGPDPTLASVSATRGTFATAQVSVPAGNGFASGVIYYPTDTSQGTFGGVAIVPGYSALFANEEAWMGPWLASFGFVVIGIETNSRTDSADARGTQLLAALDYLTQRSAVRDRVDPNRLSVIGHSAGGAGVLSALLRRPTLKAAVGLAPGSPVGDYSLYNDRVPTMFISGERDTTVTRSYLNGLYTTIPASTPSAWVEITGVDHLFATRANTTEMRVLIPWLKIFLDNDTRYTQFLCPQLADPGNVSMYRNKCPYVPPGGSSPSASPSTSPSASPSTSPSASPSVSPSPSPSPSPSASPSTSRACTASYRTVNSWSGGFQGEVTVTAGTSAINGWTVGWTLSGGQTINQLWNGTLSANGSAVRVTNVSYNGSIPASGSSTFGFLGTGTPSNPTLTCTSP [ESM040] | 59.8 | 526 | < 3 | < 3 | < 3 | < 3 | < 3 | < 3 | < 3 | < 3 | 
4 | ADNPYQRGPDPTRTSVATERGPFANTSVSVPSGYGFNGGRIYYPTDTSQGTFGAIAISPGYTALFSAELAWMGPWLASHGFVVIGIETNSRNDFDTARGTQLLAALDYLTQQSPVRDRIDPNRLAVSGHSMGGGGALSAAMRRSSLKAVVGIAPYSPSSNLANDRVPTMIFSGQADTVVTPSYAMGLYNSIPAGTKSAYLEVAGGDHGFMVGRSNPVLIRTMLPFLKIFIDNDARYSQFLCPLLDNSGVVTYRSTCPFLPTTPTTPPPTG [ESM065] | 67.9 | 250 | 29 | 7 | < 3 | 4 | < 3 | < 3 | 21 | < 3 | 
5 | TADSSYQRGPAPTEASVRADRGPFQVARVNVPGAGFGSGTIYYPTDTSQGTFGGVAVSPGFLSPEILIAWLGPRLASHGFVVITFTTNTPTDQPDSRGSQLLAALDYLTTQSPTAVRQRLDNTRLSVIGHSMGGGGALRAANDRPDLQAAVPLGPYHTTKDWSGVRVPTMIIGGQYDSIAPNDQHSERFYNSLDSAPEKAYLRVTGTTHITVGTGTPGVGKYVLSWLKRFVDDDTRYDQFLCPTPSGPDVVEYHSTCPHA [TEP009] | 49.3 | 28.4 |  |  |  |  |  |  |  |  | 
6 | ADSPYQRGPDPTPASVAATRGPFATTQATVPAGNGFNGGYVYYPTDTSQGTWGAVAIVPGYSALFANEEAWMGPWLASFGFVVIGIETNSRTDGADARATQLLAALDYLTRTSPIRDRVDANRLGVMGHSAGGAGTLLAALRRPTLKTAVGLAPGTPGNNLNMSTTQVPTMLLSGQNDGTVTPTYVQGIYNTLPAGVEHAWAELAGNDHLSFTRSNPTEMRLLIPWLKTFLDNDTRYTQFLCPLANSTGVSRYNATCPLVPPDGPTSPPTTTPPTSAPPTTSAPTTPPPSGATCTATYRTVNSWSGGFQGEVTVTAGAAALNGWTVRWESNNGQSISQVWNGTLSTSGSTATVRNVSYNGSLAAGATTTFGFLSSGTPAATSPTCASP [ESM051] | 54.4 | 27.3 |  |  |  |  |  |  |  |  | 
7 | ADNPYERGPAPTTASIEAVRGPYAVSEYRVSSLAATGFGGGTIHYPTTTADGTFGAIAVSPGYTGTESTIAWLGPRLASQGFVVFTIETLTLFDQPDSRGRQLLAALDHLTRVSPLRGRVDSSRLGVMGHSMGGGGSLEAAKSRPSLQAAVPLTPWNLDKTWPELRTPTLVVGADGDSIAPVRSHAEPFYESLPSSLDRAYLELNGASHFAPNSPDTTIAKYSIAWLKRFIDNDTRYEQFLCPLPRPSLTIEEYRGNCPHTS [TEP138] | 36.1 | 28 |  |  |  |  |  |  |  |  | 
8 | MSNPYQRGPNPTRSALTADGPFSVATYTVSRLSVSGFGGGVIYYPTGTSLTFGGIAMSPGYTADASSLAWLGRRLASHGFVVLVINTNSRFDGPDSRASQLSAALNYLRTSSPSAVRARLDANRLAVAGHSMGGGGTLRIAEQNPSLKAAVPLTPWHTDKTFNTSVPVLIVGAEADTVAPVSQHAIPFYQNLPSTTPKVYVELCNASHIAPNSNNAAISVYTISWMKLWVDNDTRYRQFLCNVNDPALCDFRTNNRHCQLEHHHHHH [LCC-ICCG] | 93.6 |  | 51.5 ± 15 | 94.5 ± 18 | 130 ± 20 | 121 ± 18 | 208 ± 33 | 236 ± 3 | 20.1 ± 5.3 | 56.2 ± 7.2 | PET hydrolysis ([3]; substrate: aFilm, 40 °C, pH 4.5): 8.5 ± 1.9; PET hydrolysis ([3]; substrate: aFilm, 40 °C, pH 5.5): 17.4 ± 9.2; PET hydrolysis ([3]; substrate: aFilm, 40 °C, pH 6.5): 38.1 ± 12; PET hydrolysis ([3]; substrate: aFilm, 40 °C, pH 7.5): 58.9 ± 20; PET hydrolysis ([3]; substrate: aFilm, 40 °C, pH 8.5): 73 ± 30; PET hydrolysis ([3]; substrate: aFilm, 60 °C, pH 4.5): 60.8 ± 8; PET hydrolysis ([3]; substrate: aFilm, 60 °C, pH 5.5): 448; PET hydrolysis ([3]; substrate: aFilm, 60 °C, pH 6.5): 820 ± 23; PET hydrolysis ([3]; substrate: aFilm, 60 °C, pH 7.5): 965 ± 100; PET hydrolysis ([3]; substrate: aFilm, 60 °C, pH 8.5): 584; PET hydrolysis [3, 7]: 113 ± 14
9 | TNPAPPSTPNPPAEESPYVRGPNPTVSFLEARSGPLSVRTSRVSSLVSGFGGGTIHYPTGTTGTMGAVVVIPGFVSAESSIDWWGPKLASHGFVVLTIDTNTGFDQPPSRARQINNALDYLVSQNSSRTSPVRGMIDTNRLGVIGWSMGGGGTLRVASEGRIKAAIPLAPWDTVSSYAANAQAPTLIFACQADIVAPVAAHASPFYNRLPNSIDKAYVEISGGSHYCANGGGLNNNVLSRFGVSWMKRFLDEDTRYSQFLCGPNHRSDRDIADYRGNCP [ESM172] | 49 | 26 |  |  |  |  |  |  |  |  | 
10 | FSATGPSAPCSNCTRGPAPTVTALKASTGPFTTAKFSVSGFLKGYGDSTVYYPTNTTGKMGAIAVIPGYLSYESSIDWWGPRLASHGFVVMTMNTKTIYDQPDSRASQLSEALDYLIAQSKSSSSPLYNKIDSTRLGAIGWSMGGGGSLKLATQRSINAIIPQAPWYLGSSAFSGIKTPTLILACSADTVAPVAQHASPFYNQIPNSTPKAFLEIYGGSHFCANSGYPNQDMLGMYGIAWMKRFIDFDSRYSQFLCGPNHESDYAISDYRENCPY [ESM055] | 55.3 | 28.9 |  |  |  |  |  |  |  |  | 
11 | CAAGGPGASPGLQPTIASLSVDGAFKVMTYTDIPDVPEFGDATVYYPADTPTPIGGVAISPGWTEAQRHINWWGPRLASHGYAVLVLDTNDARRDQPEERAEALIAAVRILRGENDRAESPLQGRVDTGKMAIMGHSMGGGGTLIAANKYPDEIQAAIPFTPWQPDGDFGQITAPTLVMAGSADRVAGVADHAWPHYQSIPETTTKVFMEVDGGNHFIADTRRGTDLGTIGRYGIAWLKLYLDGDERYRSFIYGAEAEVDREKFSRYLTSP [TEP119] |  | 78.9 | < 3 | < 3 | < 3 | < 3 | < 3 | < 3 | < 3 | < 3 | 
12 | QSNPYERGPAPTESSIEATRGSFSVSDKNVSSFSASGFGGGTIYYPTDTSQGTFGGVAISPGFTAGESSIAWLGPRIASQGFVVITIDTNSRYDQPNSRADQLQAALDHIVADSTVGSRIDPNRLAVMGHSMGGGGSLKAAEDNADLQAAVPLQPWHTQKNWSDVEVPTLIIGAENDSVASVTTHSKPFYTSLPDDLDKAYLELDGASHFVSNTPDTTTAKYSISWLKRFVDDDTRYEQFLCPAPDDRTISEYRDTCPHSGGGGTTPTTTPTTLPPDDDCAWWQWWC [DP057] |  | 34 | < 3 | 10 | 29 |  |  |  |  |  | PET hydrolysis [3, 7]: 31

— the supplement of paper PMC12455559
